Assay [1] has as its target T1, biotinylated-Lys63 linked Di-Ub (UniProt P0CG47 1-76, isopeptide bond between the C-terminal Gly of the distal Ub and Lys63 of the proximal Ub; biotin tag at the N-terminus of the distal Ub).
T1 construct: mature; Immobilised on streptavidin plates or on the SPR CAPture chip; also called K63-linked Di-Ub; biotin-Lys63 linked Di-Ub
The assay can be described thus: SPR (BIACORE T100), biotinylated Lys63 Di-Ub on a CAPture chip. As to the method:
The binding of cyclic peptide 1 (CP1) against the target, Lys63 linked Di-Ub was determined using BIACORE T100 instrument (GE Healthcare) equipped with a biotin CAPture kit series S chip. 50 mM HEPES (pH=7.30, 150 mM NaCl, 0.05% Tween 20, 2.0 mM DTT, 0.2% DMSO) was used as buffer. Biotinylated-Lys63 linked Di-Ub was loaded on the SPR chip. By using various concentrations of peptide.
On the technique in general: Surface plasmon resonance follows binding to a sensor surface in real time, without labels.

The target in assay [2] is T1, biotinylated-Lys63 linked Di-Ub. The assay can be described thus: fluorescence-based competitive assay: unlabeled peptide, 5.0 molar equiv., pre-bound to biotinylated Lys63-linked Di-Ub on a streptavidin plate, then competed with CP1-FITC (1 equiv.); signal change relative to 1 (CP1), Y=[1-(a/b)]x100. The procedure: Streptavidin-coated microplate (96 well plate) was washed with HEPES buffer (50 Mm HEPES, 150 Mm NaCl, pH 7.30) and then in each well incubated 1 μg of biotinylated-Lys63-linked Di-Ub in 100 μl of the same buffer at RT. for 30 min. Additional wells were kept without biotinylated-Lys63-Di-Ub for blank subtraction. After the washing step, peptide standard (CP1) and unlabeled peptides were incubated (5.0 molar equivalent relative to biotin-Lys63-linked Di-Ub) at RT for 30 minutes for saturation binding to the target. Then 1 molar equivalent of FITC labeled peptide-standard (CP1-FITC) relative to biotinylated-Lys63-linked Di-Ub was incubated to compete with unlabeled peptides at RT for 30 min. After releasing bounded peptides on treatment with 6 M Guanidinium chloride (Gnd·HCl), the fluorescence values were measured (λex=480 nm and λem=525 nm). These values were normalized and then calculated the relative change in binding with the following formula:
Y=[1−(a/b)]×100 [0289] Where Y=Signal change relative to the standard (CP1) (in terms of %). [0290] a=Measured signal value of each peptide candidate (in Relative Fluorescence Units). [0291] b=Measured signal value of standard peptide (CP1). The dissociation constant (KD) of fluorescein-labeled peptide (CP1-FITC) was calculated in accordance with the literature procedure (Vamisetti G B et al., 2021).

In a further assay the target is T2, Lys48-linked Tetra-Ub (UniProt P0CG47 1-76, isopeptide bonds between the C-terminal Gly and Lys48 of successive Ub units).
T2 construct: mature
The assay can be described thus: fluorescence-based assay of relative binding on Lys48-linked Tetra-Ub, normalised to Ub4_ix; the labelled competitor is not named [panel headed '(iv) Binding of 1 and 2 against Lys48 Tetra-Ub as a target' (v) of the legend].

A further assay has as its target T3, Lys48-linked Di-Ub (UniProt P0CG47 1-76, isopeptide bond between the C-terminal Gly of one Ub and Lys48 of the other).
T3 construct: mature
The assay can be described thus: fluorescence-based assay of relative binding on Lys48-linked Di-Ub, normalised to mJ08-L8W; the labelled competitor is not named [iv].

Starred links: 1 amine or outer side, 2 acyl side, 3 side chain; linkers in the order of their positions; H or OH if unused. Positions of bridges follow the written chain, without caps; N, C: chain ends. Primed or numbered codes have the meaning given here. No end group written: not given here. *: point of attachment. mClBz(3) = 3-(chloromethyl)benzoic acid, non-amino acid initiator forming a thioether with the C-terminal-region Cys, O=C(c1cccc(C[*:3])c1)[*:2]; mClBz(4) = 3-(chloromethyl)benzoic acid initiator, its benzyl thioether with a Cys side chain closes the ring, O=C(c1cccc(C[*:3])c1)[*:2]; mClBz = N-terminal group cyclised as a benzyl thioether to a Cys, O=C(c1cccc(C[*:3])c1)[*:2]; C10F9 = S-aryl group from decafluorobiphenyl, Fc1c(F)c(F)c(-c2c(F)c(F)c(*)c(F)c2F)c(F)c1F; C6F5 = pentafluorophenyl group on the Cys sulfur, Fc1c(F)c(F)c(*)c(F)c1F

Six molecules from patent US20250099534A1 (TECHNION RESEARCH AND DEVELOPMENT FOUNDATION, published 2025) can be followed below.

B1: cyclic peptide 1 (CP1) (peptide)
peptide: {mClBz(4)}-LLIWIGSSKNPYILCG-NH2
modifications: thioether N-15
SMILES: CC[C@H](C)[C@@H]1NC(=O)[C@H](Cc2c[nH]c3ccccc23)NC(=O)[C@H]([C@@H](C)CC)NC(=O)[C@H](CC(C)C)NC(=O)[C@H](CC(C)C)NC(=O)c2cccc(c2)CSC[C@@H](C(=O)NCC(N)=O)NC(=O)[C@H](CC(C)C)NC(=O)[C@H]([C@@H](C)CC)NC(=O)[C@H](Cc2ccc(O)cc2)NC(=O)[C@@H]2CCCN2C(=O)[C@H](CC(N)=O)NC(=O)[C@H](CCCCN)NC(=O)[C@H](CO)NC(=O)[C@H](CO)NC(=O)CNC1=O
notes: Found by RaPID selection, then made by Fmoc-SPPS; also called lead cyclic peptide 1
Molecule B1 displayed a Kd in assay [1] of 16 nM. This counts as double-digit nanomolar.

For {mClBz(3)}-C(CH2C10H7)LIWIGSSKNPYILCG (bridge N-15; not fully specified (C-terminus, bridges)) [cyclic peptide 18, CP1-L1C-CH2C10H7], the binding result in assay [2] is given as “binds”.

{mClBz(3)}-C(7‑methoxycoumarin‑4‑ylmethyl)LIWIGSSKNPYILCG (bridge N-15; not fully specified (C-terminus, bridges)) [cyclic peptide 19, CP1-L1C-CH2C10H7O3]: the binding result in assay [2] is “binds”.

On to mClBz-C(C6F5)LIWIGSSKNPYILCG (thioether N-15) [cyclic peptide 20, CP1-L1C-C6F5], for which the binding result in assay [2] is “binds”.

Take mClBz-C(C10F9)LIWIGSSKNPYILCG (thioether N-15) [cyclic peptide 21, CP1-L1C-C10F9]: the binding result in assay [2] is listed as “binds”.

In the case of mClBz-CLIWIGSSKNPYILCG (bridge N-15; not fully specified (C-terminus, bridges), also called CP2) [cyclic peptide 2 (CP1-L1C)], the binding result (with Lys48-linked Tetra-Ub; in assay [2]; with Lys48-linked Di-Ub) was “binds” in each case.

Usually Kd stands for the constant that tells how readily two partners part at equilibrium. The low end stands for tighter binding, the high end for weaker binding.
